Assay results from the DeepSol protein solubility set.

Assay: soluble on expression in E. coli; label from the status in PepcDB or PDB records

Soluble on expression in E. coli, soluble:
MRKLFLLAIVLCVWSVVADAQESERRYIEVTGSSEIEVVPDEIHLLIQIKEYWKEEFVPKSKPEDYKTKVPLEWIEKDLRRVLSRAGISDEAIRVQEIGDYWRQKGKEFLIGKQLDIRFTDFEKINAVIKKIDTKGIESMRIGELKHKDLPNYRKQGKIEALKAAREKASYLVEAMGQKLGEVIRIVEPASSYVSPYSLYQAQSNVSMGTAATEQYRVITLRYEMTARFAIELEHHHHHH, MRKTLIALMFAAALPTVAMAMPDGGPRHDGPHHRGDAPFHQLDLSRDQRQQIGKLMGEQMQQRRDITERYLSKLPATDQKAMKDELQANRDKTDSAVRKLLTADQQKKFDELQKERAAKKAEWQEFQAWKAEKGAKAQLEHHHHHH, MRKVKTDNSDLIEYVNTVKELKNHIPIEEYRNEYRKLRSDDIPLVKAQKFKSAHTEVRRLEKKRESLIEYFIDELNPISSSKANTSARSTGNLDLFNERVLYRKAISEKSDEEIVALVIKQRTEAAVEFQRSIEQSLEQLSRISSEFEPSNQKRRKMSL, MRLLLAAPHSGAGKTTVSLALLLALRARGLRVQPFKVGPDYIDPTHLEKAAARRPYNLDGFFLDETGLLALFRHGARGADFALIEGVMGLFDGKDPRGEVGSTAQVARLLKAPVALVVDAKGMAGSIAPLALGFRDFHPGVRVVGVFANRVGSERHAEILKEALKAVGLPLLGWLPQDPALALPERHLGLVLAGEVAPPLEALRRAFRVDLEGVLRLAASAPPLPEARPFLPPRRPPRARVAYAWDKAFSFYYPEALELLEALGAELVPFSPLEDEALPKAHALLLGGGYPELFAERLSANVALREAIRRFPGPIVAECGGYMYLSQGLWVGERFFPMVGLVPGEARMAERPVLGYREVEALRDSPVARKGQAFKGHEFHYARLPASPSPAWRRLGGEEVEGYTDGRVLASFVHLYLPAKPEGVERLLGLASRGKAAGAS, MRLLVADDHPLFRLGLKAALEAEGLEVVAEAGTGEEALVQALEKAPDAVLLDLRMPGMDGLTCARRLREMGYRGLVILLTTYQEPALLLEAYKAGADAYLSKELSAPELKRRLLRIRQGEERLTAPDIPALTPREEEVLRLLAEGLSTKEIARALRLSPETVRSHLESLYAKLEARNRVEALSRARSLGLLP, MRLRKKPWARPALEACSFFVINPTEYKGKWREVFGNSNEIWLELGCGKGGFISKLASTNPDKNFIAVDIKDEVLALAMKKIENEYALIGAETKNIRLMAHEIMLIHRMLDENDQIGRIFINFCNPWPKNRHKARRLTHPNQLNQYRTFLAPNGQIWFKTDDTMLFQDSIKYFEQCNFNIVYLTEDLHASGFEGNIETEHERMFLEQGCKIKFLIAEKK

Soluble on expression in E. coli, not soluble:
MRKFLSKTHHHTNPLWRVYRLVKFSKVFKNVIIIEFSKFIPSMVLKRHIYKQLLNINIGNQSSIAYKVMLDIFYPELITIGSNSVIGYNVTILTHEALVDEFRYGPVTIGSNTLIGANATILPGITIGDNVKVAAGTVVSKDIPDNGFAYGNPMYIKMIRR, MRKLKMMLFGASLIMVAGCSSKENALCHPQPKPPAPPAWAMMPPSNSLQLLDETFSVSGTESSETRQHLEHHHHHH, MRKMNLIVAMDAEGGIGKNGVLPWRIKKDMQYFASVTKNVSDQSKRNAVLMGRKCWESIPVTRRPLAGRLNIVLSRQLPAQKSDDYIVVNSLEAAMKLLSEPPFVDSIETIWNIGGAEIYDLALRENLVDEIHLTRIFKNFEADVHLKSLDFSKMEKVQNAEVSSENSEIFEENGLKFEFCKWKVVENH, MRKNILIFSLIAFSLTIHCSEIRVQRSLEESITKDYDQDGVYSSYEKALRRTQESVYVTLPEKRGYWYTMLDRIKAEEKELIPDEKVRMRKR, MRKTKIVCTIGPASESEEMIEKLINAGMNVARLNFSHGSHEEHKGRIDTIRKVAKRLDKIVAILLDTKGPEIRTHNMKDGIIELERGNEVIVSMNEVEGTPEKFSVTYENLINDVQVGSYILLDDGLIELQVKDIDHAKKEVKCDILNSGELKNKKGVNLPGVRVSLPGITEKDAEDIRFGIKENVDFIAASFVRRPSDVLEIREILEEQKANISVFPKIENQEGIDNIAEILEVSDGLMVARGDMGVEIPPEKVPMVQKDLIRQCNKLGKPVITATQMLDSMQRNPRATRAEASDVANAIYDGTDAVMLSGETAAGLYPEEAVKTMRNIAVSAEAAQDYKKLLSDRTKLVETSLVNAIGISVAHTALNLNVKAIVAATESGSTARTISKYRPHSDIIAVTPSEETARQCSIVWGVQPVVKKGRKSTDALLNNAVATAVETGRVSNGDLIIITAGVPTGETGTTNMMKIHLVGDEIANGQGIGRGSVVGTTLVAETVKDLEGKDLSDKVIVTNSIDETFVPYVEKALGLITEENGITSPSAIVGLEKGIPTVVGVEKAVKNISNNMLVTIDAAQGKIFEGYANVL, MRKWRIEDSEELYNITGWGTSYFSINDAGHVVVTPRRDGVTVDLKELVDELQLRDVASPMLLRFPDILDNRIEKMSSCFKQAAEEYGYKAENFIIYPIKVNQMRPVVEEIISHGKKFNLGLEAGSKPELHAVIAVNTDSDSLIVCNGYKDESYIELALLAQKMGKRIFLVVEKMNELKLIAKMAKQLNVQPNIGIRIKLASSGSGKWEESGGDASKFGLTSSELLEALDFMESKGLKDCLKLIHFHIGSQVTKIRRIKTALREASQFYVQLHSMGFNVEFVDIGGGLGVDYDGTRSSNSEGSVNYSIQEYVNDSISTLVDVSDKNGIPHPNIITESGRALTAHHSVLIFEVLETATLPEWDDEEEIAPDAHELVQELYSIWDSLNQNKMLEAWHDAQQIREEALDLFSHGIVDLKTRAQIERLYWSITREINQIAGGLKHAPDEFRGLSKLLADKYFCNFSLFQSLPDSWAIDQIFPIMPIQRLDEKPERSATLQDITCDSDGKIANFISTRNVAHYLPVHSLKKTEPYYLAVFLVGAYQEILGDMHNLFGDTNAVHVSVNEKGYNIEQIIDGETVAEVLDYVQYNPKKLVRTLETWVTKSVKEGKISLEEGKEFLSNYRSGLYGYTYLE, MRLHARSPRVESGRYGWLLDSVVDERRRHRMSFLRLGRNGMSEFERPTDHSLGRCGQVLCVTRGVSSRAPRRSAETGVSVATPATVAAHISVWQYEAMSAYAALAEPHRRQILDLLREGERPAGELVERIALSQPGVSKHLKVLREAGLVVVRADGKQRLYALRPEPLAEVDRWLEPYRAYWSRRLDALERHLEENP, MRLIKVIITSQKEYSMKKLLSLSAITLSVLAPSAFAAQEVNVYSYRQPFLIEPMFAEFTKETGIKVNVKFAKEGIAEKLAQEGEYSPADVILTSEFSRLFELTEKGLTQPLDSKVIEENIPAQYRDSGDEWFALTQRTRSVYSSRDRLGKLGDDFDYMDLAKPEFKGKICTRSGKHPYNIALVASIIANHGEAEAKAWLEGVKANLARKPQGNDRDQVRAIKEGLCDVSLGNSYYLGAMLNDQEQKSWAEAVYINFPGQNVQGTHVNVSGMAMAKYSPNRENAQKLMEFLTGETAQKMYAEVNYEYPVKPGVQRSALVESWGEFKADSLPLEKIADNNAAAIKLIDEVKFDL, MRLSRSSHHKTLDEYDFSFQPDLDPRKVRDLATLSFVEGRANAALLGVLVADEVGYQPLERAEARLVFQVISKRYEKGSIILASNKTFSEWGQVGPGFGDEVLATALLGRLLDHCDVISINGPGYRLRNRLKAIERENDVALEHHHHHH, MRMIPIKIWAADVDVSIGYRAPRAASNTLGIFSYSAEYTLCTLPISNMTSQSVMFKGGLPADCTCPICEQALRDPIKLNCDHHYCRQCFENENRTPGCAACQTIIQPELCQHDRAKQKQILALPVVCTFESSGCPWDGQLGTLHDHLSECTFKSSLKCEKCGRQFAKNDLEKHRAKCELNRAVCSFCNKTIRDSDRERHPKTCPQVIISCPFQCGLTDRPRLEIEAHCPSCPNVDNVCPFVPYGCTFAGGKESIQQHLSDEPVRHLMYLCDEITDLKGTYELMERDMGSFNDRQTRILSAAETCTEMFGPQLIWKIDKLQQRTNEAKSGADTTIFSVPFMSHRFGYKMMACACLFGDGSSAGKSISLYVLLLKGEFDPTLEWPFHRAIKISLLDQNPRPEDRVNITYVIDPRKLKANEKFLARPRGERNAAFGSQSFCSLAILQNYVKDDKIYVQIDVDRCETLPVQLKSRDAKERKQMLDAMRAKTPDVRLHQVRPVTSQSSSAELRV, MRNGISPIIIDNTNLHAWEMKPYAVMALENNYEVIFREPDTRWKFNVQELARRNIHGVPKEKIQRMKERYEHNVTFHSVLHAEKPSRANRNQGRNSEPSSGSGYWNTYTELPNRRANGLYSNEGYRRGGHHQGY, MRNWKVTGKYPQLDGTGAVASTHIIIAAEDGAVIPQLIKQDLTSTNDTEIIKAALEEFKKSEYVEIAMGEAVQKVDDLEKISQETAKTAKTAQTAAGLAKVSAERTQRMINLQTIHVLTSGGNVEPDIYKGMLELIEPAKQGEYQAYDVFTVVDESHEDQAVEGNLVFVHVNEPFTYEAQTLKDLESEDKVTVIKYADLVKQD, MRPPSELLDIISKLAELDPLVRKGAVRQLSSKQEELSDNELNTYVIERLISGCASARAAVRLGYTTALGTILMTKAGESWELDKILAVADKKMDLAEKTVGTGHAIGHYLILVTYCQTRKLKEAEATKIVEHSKKIRDFAPSLAFSQINLLCSLATKTKESVFQKSVSPAIEMNLEGLSSQFTPENVYLALRLRNSHSTVVAKYAKFVKKDGSIQFSDDQYPKILAALKRCDFATVQVFLPLLIKASVESSGFDKMYLKVLEPWALSSNETKVFDRILTIVTQFFDFGGDVKSIVVVFTKEVLNRMETATRGKGQFRLMSKKVDDFAAFIQSKLSELRDEEAYTALKELEKCGNVDKACGTGLTTALLSNLGKKQISVWIKENLSNQDEVRKIVSAFSNWDEKSRITVLSALLSQKATETSQSVVTSIIDSLFYVKTRAGEFASIQISEKNEEVLRQLVVAVQGEEEVKKAEKSIGKSKLRKKSLQILWYVTRLWSRIAASSVDSAAYDSDSSEILAIAKNEADGNNSLVFVDLLLSILSREQKFHRTPTAFAFVHAIPTLESKDLCHIVETAMMSEAELAGNDDEDMEDEEGMPFDESEIPSGNGDDEASDSDDDDEEEDDDEGNEAVDQELLDKLNAALGDAAPRDSSSDVEMDDLDDEAMQKMDERLAAAFKAIAPKAGKDKKRSAKSVEALKMKIADLLLIAISSKELAEQSKIKLVVPLLKWAKVDAKTHDKVAQKVLELVNIVVKMKFTDVSEKDALQLLKQVLDEAQTTTNILIIDTVARCVTFVLKISSRDGKSMSAGVKTEFQSLFENYLKNVEGKVPSNFVIQPIADLPLLFVDQLGMLIDAGFDEENRIFKRTEILGAIAMIFTKQVLQETNIKGAIIKKIGKLAAAYFQKVVDSDKSELKPRLFGTVLQLILKVTVCIQNDEKHVDALRESLEYVIQKMFEGEVFIQLKKINPTCHHIIGKSIAGAFTSIKKSLDIEN, MRPTDTSNFAPAEISKRKVRRVKANGRERARMHGLNNALDMLREYIPITTQHQKLSKIETLRLARNYIDALQRMLQTNEQPTPLEYAHTLANGLSQTTTNMLANLLQVQPRQLLPPSQFDIFSDPSHHQLHPSHPPPHSSFSSSSPSSSCSPPQYYYSPTQPSAAPLQGSCDPQYQQMYHQHSHQNTFNYSP
